Several values for one entry are separate records, joined by “and”; a condition that tells them apart may be missing. Equal entries are not always repeated. Ends that are not written are not given here. * marks the point of attachment. Dansyl = CN(C)c1cccc2c(S(=O)(=O)*)cccc12
B1: ELAN018(PAX2) (peptide)
peptide: K(Dansyl)STPPSREAYSRPYSVDSDSDTNAKHSSHNRRLRTRSRPNG-NH2
B2: z024(P31) (peptide)
peptide: K(Dansyl)SARDSGPAEDGSRAVRLNGVENANTRKSSRSNPRGRRHPGG-NH2
B3: ELAN024(P31) (peptide)
peptide: K(Dansyl)SARDSGPAEDGSRAVRLNGVENANTRKSSRSNPRGRRHPGG-NH2
B4: Z21(HAX42) (peptide)
peptide: K(Dansyl)SDHALGTNLRSDNAKEPGDYNCCGNGNSTGRKVFNRRRPSAIPT-NH2
modifications: cysteine pairing not given here
B5: ELAN021(HAX42) (peptide)
peptide: K(Dansyl)SDHALGTNLRSDNAKEPGDYNCCGNGNSTGRKVFNRRRPSAIPT-NH2
modifications: cysteine pairing not given here

Legend:
C2BBe1 fixed cells [1] = experiment: competition ELISA on fixed cells; vs GST-HAX42
C2BBe1 fixed cells [2] = experiment: competition ELISA on fixed cells; vs GST-PAX2
[3] = molecular target: C2BBe1 fixed cells (GST-P31 competition); experiment: competition ELISA on fixed cells; vs GST-P31
C2BBe1 fixed cells [4] = experiment: competition ELISA on fixed cells; vs GST-P31

Binder	IC50 (C2BBe1 fixed cells [1])	IC50 (C2BBe1 fixed cells [2])	IC50 [3]	IC50 (C2BBe1 fixed cells [4])
B1	230 nM	600 nM and 1000 nM	–	–
B2	–	–	940 nM	–
B3	–	–	–	500 nM
B4	–	700 nM	–	1700 nM
B5	5500 nM	–	–	–

— US6703362 (dated 2004)
